Data reported in US20080281082 (published 2008).
Numbering of substitutions follows the chain as printed. Each block holds one binder with its values, some of them ahead of it.

Molecular target: Aβ (beta amyloid peptide) (human)
Assay: SPR

Kd: 2.24 nM
B1: humanized 3D6v2 (antibody, V domains shown)
VH: EVQLLESGGGLVQPGGSLRLSCAASGFTFSNYGMSWVRQAPGKGLEWVASIRSGGGRTYYSDNVKGRFTISRDNSKNTLYLQMNSLRAEDTAVYYCVRYDHYSGSSDYWGQGTLVTVSS
VL: DVVMTQSPLSLPVTPGEPASISCKSSQSLLDSDGKTYLNWLLQKPGQSPQRLIYLVSKLDSGVPDRFSGSGSGTDFTLKISRVEAEDVGVYYCWQGTHFPRTFGQGTKVEIK

Kd: 2.06 nM
B2: humanized 3D6v1 (antibody, V domains shown)
VH: B1 VH with S75A, T78S, V93L
VL: B1 VL with D1Y
